Laboratory results as given in US20220389394A1 (Gilead, published 2022).
Where two headings read alike, the source gives them in different places.

Key:
[1] = target: T1, his-tagged recombinant human Flt3 receptor (Sino Biologicals) (human, UniProt P36888 27-541, limits assumed); assay: ELISA; His-tagged recombinant human Flt3 on nickel plate, serially diluted Flt3L-Fc, anti-human (H+L)-HRP, 4PL fit
T1 construct: Bought protein; also called human recombinant FLT3; not shown: His tag
T1 sequence (looked up): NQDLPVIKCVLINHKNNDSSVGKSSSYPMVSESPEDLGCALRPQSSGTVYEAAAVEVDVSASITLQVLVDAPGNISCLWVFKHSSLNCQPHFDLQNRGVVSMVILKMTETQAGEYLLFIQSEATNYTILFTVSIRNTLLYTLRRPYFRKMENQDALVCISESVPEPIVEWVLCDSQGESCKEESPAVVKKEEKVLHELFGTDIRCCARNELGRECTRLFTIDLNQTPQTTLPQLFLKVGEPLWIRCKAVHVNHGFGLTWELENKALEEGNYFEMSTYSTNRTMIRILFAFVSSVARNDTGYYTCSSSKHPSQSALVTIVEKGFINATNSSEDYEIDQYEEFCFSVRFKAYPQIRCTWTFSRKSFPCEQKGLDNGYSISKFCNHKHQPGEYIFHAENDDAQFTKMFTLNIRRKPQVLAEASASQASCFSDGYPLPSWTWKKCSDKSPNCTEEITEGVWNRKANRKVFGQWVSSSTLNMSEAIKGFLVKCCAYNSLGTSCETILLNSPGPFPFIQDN
From the text: Graph is a result of one experiment.
Signal was developed using TMB substrate then quenched prior to reading absorbance at 450 nm on a SpectraMax plate reader.

[2] = target: T2, recombinant human C1q protein (Fitzgerald) (human, UniProt P02745 23-245; P02746 28-253; P02747 29-245, limits assumed); assay: ELISA, test article immobilized, C1q added; text: devoid of C1q binding ability
T2 construct: also called human recombinant complement protein, C1q
T2 sequence (P02745 23-245 limits assumed, chain 1 of 3): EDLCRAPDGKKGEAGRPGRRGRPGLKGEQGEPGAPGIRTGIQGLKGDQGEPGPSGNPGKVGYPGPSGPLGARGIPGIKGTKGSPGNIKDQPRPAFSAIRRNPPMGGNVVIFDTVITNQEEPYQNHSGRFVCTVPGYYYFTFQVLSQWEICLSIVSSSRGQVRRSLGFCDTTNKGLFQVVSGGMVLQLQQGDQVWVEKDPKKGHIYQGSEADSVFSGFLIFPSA
T2 sequence (P02746 28-253 limits assumed, chain 2 of 3): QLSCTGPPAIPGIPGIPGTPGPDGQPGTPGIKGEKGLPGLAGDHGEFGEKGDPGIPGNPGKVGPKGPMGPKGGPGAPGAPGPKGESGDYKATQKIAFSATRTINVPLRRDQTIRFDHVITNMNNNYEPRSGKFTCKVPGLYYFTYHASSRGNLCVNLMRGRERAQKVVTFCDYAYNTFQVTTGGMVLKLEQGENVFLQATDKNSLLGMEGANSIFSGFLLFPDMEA
T2 sequence (P02747 29-245 limits assumed, chain 3 of 3): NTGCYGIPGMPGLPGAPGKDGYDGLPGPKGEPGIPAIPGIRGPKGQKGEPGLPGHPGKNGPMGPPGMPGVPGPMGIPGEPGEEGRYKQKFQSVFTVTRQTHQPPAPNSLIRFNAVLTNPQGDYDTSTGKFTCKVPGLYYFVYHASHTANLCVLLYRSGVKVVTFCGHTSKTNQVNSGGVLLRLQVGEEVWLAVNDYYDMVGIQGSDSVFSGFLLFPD

[3] = target: T3, human FLT3 on the AML5 cell line (human, UniProt P36888 27-993); assay: cell-based or functional assay
T3 sequence (looked up): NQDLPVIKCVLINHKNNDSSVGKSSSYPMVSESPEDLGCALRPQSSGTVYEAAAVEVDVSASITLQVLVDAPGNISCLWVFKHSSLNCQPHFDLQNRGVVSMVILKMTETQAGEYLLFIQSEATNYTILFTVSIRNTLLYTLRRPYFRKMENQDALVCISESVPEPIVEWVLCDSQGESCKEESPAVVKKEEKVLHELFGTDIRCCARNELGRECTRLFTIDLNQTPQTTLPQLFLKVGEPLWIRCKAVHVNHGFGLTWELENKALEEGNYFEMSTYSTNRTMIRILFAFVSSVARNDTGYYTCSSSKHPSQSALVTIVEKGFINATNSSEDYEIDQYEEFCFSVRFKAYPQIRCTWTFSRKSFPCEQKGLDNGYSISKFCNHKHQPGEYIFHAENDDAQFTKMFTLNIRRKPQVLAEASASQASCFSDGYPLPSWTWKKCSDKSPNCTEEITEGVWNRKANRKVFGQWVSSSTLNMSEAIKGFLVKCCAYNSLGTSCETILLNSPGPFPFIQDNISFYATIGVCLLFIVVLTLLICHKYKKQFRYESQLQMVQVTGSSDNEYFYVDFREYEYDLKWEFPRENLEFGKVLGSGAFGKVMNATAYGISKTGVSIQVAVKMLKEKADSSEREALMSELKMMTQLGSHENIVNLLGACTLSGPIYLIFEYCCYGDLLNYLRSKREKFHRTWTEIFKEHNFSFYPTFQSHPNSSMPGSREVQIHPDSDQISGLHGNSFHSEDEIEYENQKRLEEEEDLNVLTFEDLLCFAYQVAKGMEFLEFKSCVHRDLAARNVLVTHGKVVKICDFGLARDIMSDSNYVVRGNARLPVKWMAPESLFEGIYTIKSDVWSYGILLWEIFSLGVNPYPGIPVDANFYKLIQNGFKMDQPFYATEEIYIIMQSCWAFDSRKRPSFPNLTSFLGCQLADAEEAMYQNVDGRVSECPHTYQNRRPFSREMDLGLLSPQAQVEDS

recombinant human FcRn = target: T4, recombinant human FcRn (human, UniProt P55899 24-297; P61769 21-119, limits assumed); assay: ELISA; recombinant human FcRn coated, serially diluted test article, anti-human (H+L)-HRP, 4PL fit; estimate, no saturating signal
T4 construct: a beta-2-microglobulin chain is not mentioned; also called human recombinant FcRn
T4 sequence (P55899 24-297 limits assumed, chain 1 of 2): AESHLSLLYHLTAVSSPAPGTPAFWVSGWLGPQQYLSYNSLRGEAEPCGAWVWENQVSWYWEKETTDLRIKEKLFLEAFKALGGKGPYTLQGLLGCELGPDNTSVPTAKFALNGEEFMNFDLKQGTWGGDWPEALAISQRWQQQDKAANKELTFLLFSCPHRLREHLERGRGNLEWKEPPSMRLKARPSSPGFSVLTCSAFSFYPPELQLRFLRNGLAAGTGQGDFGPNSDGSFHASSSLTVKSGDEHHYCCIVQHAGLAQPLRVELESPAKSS
T4 sequence (P61769 21-119 limits assumed, chain 2 of 2): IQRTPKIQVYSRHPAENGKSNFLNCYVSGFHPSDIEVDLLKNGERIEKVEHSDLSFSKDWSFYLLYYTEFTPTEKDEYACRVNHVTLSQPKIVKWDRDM
Experimental: Graph is a result of one experiment. Experiment was performed in duplicate. Error bars represent standard deviation of the mean values.
Signal was developed using TMB substrate then quenched prior to reading absorbance at 450-650 nm on a SpectraMax plate reader.

[4] = target: T3, human FLT3 on the AML5 cell line; assay: cell-based or functional assay; remark: listed apart in the source
[5] = target: T3, human FLT3 on the AML5 cell line; assay: cell-based or functional assay; remark: listed apart in the source
[6] = target: T3, human FLT3 on the AML5 cell line; assay: cell-based or functional assay; remark: listed apart in the source
[7] = target: T3, human FLT3 on the AML5 cell line; assay: cell-based or functional assay; remark: listed apart in the source

Row | Binder | EC50 [1] [nM] | binding result [2] | EC50 (nM), AML5 proliferation [3] [nM] | EC50 (recombinant human FcRn) [nM] | potency in AML5 proliferation, fold against SEQ ID NO:1 [5] [fold] | EC50 (nM), AML5 proliferation [6] [nM] | further results
1 | human FLT3-ligand (Δ10 amino acid) human hingeless IgG1 fusion protein (SEQ ID NO:7) (Fc fusion) TQDCSFQHSPISSDFAVKIRELSDYLLQDYPVTVASNLQDEELCGGLWRLVLAQRWMERLKTVAGSKMQGLLERVNTEIHFVTKCAFQPPPSCLRFVQTNISRLLQETSEQLVALKPWITRQNFSRCLELQCQPDSSTLPPPWSPRPGGPSVFLFPPKPKDTLMISRTPEVTCVVVDVSHEDPEVKFNWYVDGVEVHNAKTKPREEQYNSTYRVVSVLTVLHQDWLNGKEYKCKVSNKALPAPIEKTISKAKGQPREPQVYTLPPSREEMTKNQVSLTCLVKGFYPSDIAVEWESNGQPENNYKTTPPVLDSDGSFFLYSKLTVDKSRWQQGNVFSCSVMHEALHNHYTQKSLSLSPGK | 0.12 | no binding (tested: 94 nM (highest of the titration)) | 0.071 | ~158 | – | – | –
2 | human FLT3-ligand (Δ5 amino acid) human hingeless IgG1 fusion protein (SEQ ID NO:2) (Fc fusion, also called FLT3L ECD (Δ C-term 5aa (PTAPQ)) - hingeless hG1) TQDCSFQHSPISSDFAVKIRELSDYLLQDYPVTVASNLQDEELCGGLWRLVLAQRWMERLKTVAGSKMQGLLERVNTEIHFVTKCAFQPPPSCLRFVQTNISRLLQETSEQLVALKPWITRQNFSRCLELQCQPDSSTLPPPWSPRPLEATAGGPSVFLFPPKPKDTLMISRTPEVTCVVVDVSHEDPEVKFNWYVDGVEVHNAKTKPREEQYNSTYRVVSVLTVLHQDWLNGKEYKCKVSNKALPAPIEKTISKAKGQPREPQVYTLPPSREEMTKNQVSLTCLVKGFYPSDIAVEWESNGQPENNYKTTPPVLDSDGSFFLYSKLTVDKSRWQQGNVFSCSVMHEALHNHYTQKSLSLSPGK | 0.13 | no binding (tested: 94 nM (highest of the titration)) | 0.083 | ~300 | – | – | –
3 | mouse FLT3-ligand mouse IgG2a (LALA-PG) fusion protein (SEQ ID NO:19) (Fc fusion) TPDCYFSHSPISSNFKVKFRELTDHLLKDYPVTVAVNLQDEKHCKALWSLFLAQRWIEQLKTVAGSKMQTLLEDVNTEIHFVTSCTFQPLPECLRFVQTNISHLLKDTCTQLLALKPCIGKACQNFSRCLEVQCQPDSSTLLPPRSPIALEATELPEPRGPTIKPCPPCKCPAPNAAGGPSVFIFPPKIKDVLMISLSPIVTCVVVDVSEDDPDVQISWFVNNVEVHTAQTQTHREDYNSTLRVVSALPIQHQDWMSGKEFKCKVNNKDLGAPIERTISKPKGSVRAPQVYVLPPPEEEMTKKQVTLTCMVTDFMPEDIYVEWTNNGKTELNYKNTEPVLDSDGSYFMYSKLRVEKKNWVERNSYSCSVVHEGLHNHHTTKSFSRTPGK | – | – | – | – | – | – | EC50 (nM), AML5 proliferation [4]: 0.171 nM
4 | mouse FLT3-ligand mouse IgG2a (C136S LALA-PG) fusion protein (SEQ ID NO:20) (Fc fusion) TPDCYFSHSPISSNFKVKFRELTDHLLKDYPVTVAVNLQDEKHCKALWSLFLAQRWIEQLKTVAGSKMQTLLEDVNTEIHFVTSCTFQPLPECLRFVQTNISHLLKDTSTQLLALKPCIGKACQNFSRCLEVQCQPDSSTLLPPRSPIALEATELPEPRGPTIKPCPPCKCPAPNAAGGPSVFIFPPKIKDVLMISLSPIVTCVVVDVSEDDPDVQISWFVNNVEVHTAQTQTHREDYNSTLRVVSALPIQHQDWMSGKEFKCKVNNKDLGAPIERTISKPKGSVRAPQVYVLPPPEEEMTKKQVTLTCMVTDFMPEDIYVEWTNNGKTELNYKNTEPVLDSDGSYFMYSKLRVEKKNWVERNSYSCSVVHEGLHNHHTTKSFSRTPGK | – | – | – | – | – | – | EC50 (nM), AML5 proliferation [4]: 0.115 nM
5 | human FLT3-ligand (S128A/S151A) human hingeless IgG1 fusion protein (SEQ ID NO:5) (Fc fusion, also called Aglyco-FLT3L ECD (S128A/S151A) hingeless hG1) TQDCSFQHSPISSDFAVKIRELSDYLLQDYPVTVASNLQDEELCGGLWRLVLAQRWMERLKTVAGSKMQGLLERVNTEIHFVTKCAFQPPPSCLRFVQTNIARLLQETSEQLVALKPWITRQNFARCLELQCQPDSSTLPPPWSPRPLEATAPTAPQGGPSVFLFPPKPKDTLMISRTPEVTCVVVDVSHEDPEVKFNWYVDGVEVHNAKTKPREEQYNSTYRVVSVLTVLHQDWLNGKEYKCKVSNKALPAPIEKTISKAKGQPREPQVYTLPPSREEMTKNQVSLTCLVKGFYPSDIAVEWESNGQPENNYKTTPPVLDSDGSFFLYSKLTVDKSRWQQGNVFSCSVMHEALHNHYTQKSLSLSPGK | 0.11 | no binding (tested: 94 nM (highest of the titration)) | 0.078 | ~133 | – | – | –
6 | human FLT3-ligand (H8Y) human hingeless IgG1 fusion protein (SEQ ID NO:22) (Fc fusion) TQDCSFQYSPISSDFAVKIRELSDYLLQDYPVTVASNLQDEELCGGLWRLVLAQRWMERLKTVAGSKMQGLLERVNTEIHFVTKCAFQPPPSCLRFVQTNISRLLQETSEQLVALKPWITRQNFSRCLELQCQPDSSTLPPPWSPRPLEATAPTAPQGGPSVFLFPPKPKDTLMISRTPEVTCVVVDVSHEDPEVKFNWYVDGVEVHNAKTKPREEQYNSTYRVVSVLTVLHQDWLNGKEYKCKVSNKALPAPIEKTISKAKGQPREPQVYTLPPSREEMTKNQVSLTCLVKGFYPSDIAVEWESNGQPENNYKTTPPVLDSDGSFFLYSKLTVDKSRWQQGNVFSCSVMHEALHNHYTQKSLSLSPGK | – | – | – | – | ~2.5 | 0.014 | –
7 | human FLT3-ligand human IgG1 fusion protein (SEQ ID NO:21) (Fc fusion) TQDCSFQHSPISSDFAVKIRELSDYLLQDYPVTVASNLQDEELCGGLWRLVLAQRWMERLKTVAGSKMQGLLERVNTEIHFVTKCAFQPPPSCLRFVQTNISRLLQETSEQLVALKPWITRQNFSRCLELQCQPDSSTLPPPWSPRPLEATAPTAPQGGPSVFLFPPKPKDTLMISRTPEVTCVVVDVSHEDPEVKFNWYVDGVEVHNAKTKPREEQYNSTYRVVSVLTVLHQDWLNGKEYKCKVSNKALPAPIEKTISKAKGQPREPQVYTKPPSREEMTKNQVSLSCLVKGFYPSDIAVEWESNGQPENNYKTTVPVLDSDGSFRLASYLTVDKSRWQQGNVFSCSVMHEALHNHYTQKSLSLSPGK | – | – | – | – | – | – | EC50 (nM), AML5 proliferation [7]: 0.035 nM
8 | human FLT3-ligand (K84E) human hingeless IgG1 fusion protein (SEQ ID NO:23) (Fc fusion) TQDCSFQHSPISSDFAVKIRELSDYLLQDYPVTVASNLQDEELCGGLWRLVLAQRWMERLKTVAGSKMQGLLERVNTEIHFVTECAFQPPPSCLRFVQTNISRLLQETSEQLVALKPWITRQNFSRCLELQCQPDSSTLPPPWSPRPLEATAPTAPQGGPSVFLFPPKPKDTLMISRTPEVTCVVVDVSHEDPEVKFNWYVDGVEVHNAKTKPREEQYNSTYRVVSVLTVLHQDWLNGKEYKCKVSNKALPAPIEKTISKAKGQPREPQVYTLPPSREEMTKNQVSLTCLVKGFYPSDIAVEWESNGQPENNYKTTPPVLDSDGSFFLYSKLTVDKSRWQQGNVFSCSVMHEALHNHYTQKSLSLSPGK | – | – | – | – | ~2.5 | 0.013 | –
9 | human FLT3-ligand (H8Y+K84E) human hingeless IgG1 fusion protein (SEQ ID NO:24) (Fc fusion) TQDCSFQYSPISSDFAVKIRELSDYLLQDYPVTVASNLQDEELCGGLWRLVLAQRWMERLKTVAGSKMQGLLERVNTEIHFVTECAFQPPPSCLRFVQTNISRLLQETSEQLVALKPWITRQNFSRCLELQCQPDSSTLPPPWSPRPLEATAPTAPQGGPSVFLFPPKPKDTLMISRTPEVTCVVVDVSHEDPEVKFNWYVDGVEVHNAKTKPREEQYNSTYRVVSVLTVLHQDWLNGKEYKCKVSNKALPAPIEKTISKAKGQPREPQVYTLPPSREEMTKNQVSLTCLVKGFYPSDIAVEWESNGQPENNYKTTPPVLDSDGSFFLYSKLTVDKSRWQQGNVFSCSVMHEALHNHYTQKSLSLSPGK | – | – | – | – | ~2.5 | 0.013 | –
